From article PMC2040504 come the findings set out here.

This assay addresses CXCR4 (human (endogenous in CEM)) (UniProt P61073). Put plainly: radioligand binding; competition: 0.25 nM 125I-CXCL12α and a range of concentrations of unlabelled CXCL12 (α, γ or γ-m1) on CEM cells (10^7 cells/ml), 100 µl PBS, 1 h, 4°C; cell-associated radioactivity counted.
UniProt P61073, sequence (P61073 whole entry): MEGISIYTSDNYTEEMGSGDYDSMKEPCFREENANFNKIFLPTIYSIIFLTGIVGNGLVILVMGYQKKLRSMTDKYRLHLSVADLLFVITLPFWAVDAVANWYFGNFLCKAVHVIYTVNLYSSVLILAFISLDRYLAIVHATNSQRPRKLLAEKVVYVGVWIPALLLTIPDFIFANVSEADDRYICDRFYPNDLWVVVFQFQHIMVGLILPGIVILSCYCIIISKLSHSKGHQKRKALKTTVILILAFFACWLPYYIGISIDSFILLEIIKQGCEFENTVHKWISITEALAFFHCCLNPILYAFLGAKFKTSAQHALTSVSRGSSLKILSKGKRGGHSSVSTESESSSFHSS

A word on the IC50: it is the point on the concentration scale where inhibition reaches its midpoint. As for CXCL12γ (ligand), the IC50 came to 0.35 µM.
